For 1 substance, Km and kcat results are on record in PMC4751646, “Red Sea Atlantis II brine pool nitrilase with unique thermostability profile and heavy metal tolerance” (BMC Biotechnology, 2016).

The data set has as its system N#CCCC#N. The experiment in a line: purified protein. Format: biochemical, uncultured Burkholderiaceae bacterium. To be noted: 50 mM potassium phosphate pH 7.0, 40 °C, 2 mM DTT, 0-975 mM substrate.

One may read the Km as the substrate concentration at which the rate is half of its maximum. For orientation: kcat means the number of substrate molecules converted per active site and unit of time at saturation. For “NitraS-ATII (uncultured Burkholderiaceae bacterium)”, the Km was 59.4 ± 6.8 mM and the kcat was determined as 0.472 s⁻¹.
